Measured values reported in paper PMC8456781, “Myosin-X and talin modulate integrin activity at filopodia tips” (Cell Reports, 2021).
Where no end group is shown, it is not given here.

T1: ITGA5 tail peptide (Homo sapiens)
T1 chain: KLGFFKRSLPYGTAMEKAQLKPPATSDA

T2: His-tagged MYO10^FERM (recombinant MYO10 MyTH4/FERM domain) (UniProt Q9HD67 1504-2058, RED-tris-NTA dye on the His tag (Monolith His-Tag Labeling Kit))
T2 construct: Vector pET151; also called recombinant MYO10^FERM; MYO10 FERM domain; source: E. coli BL-21(DE3), purified (Protino Ni-TED column)
T2 sequence (looked up): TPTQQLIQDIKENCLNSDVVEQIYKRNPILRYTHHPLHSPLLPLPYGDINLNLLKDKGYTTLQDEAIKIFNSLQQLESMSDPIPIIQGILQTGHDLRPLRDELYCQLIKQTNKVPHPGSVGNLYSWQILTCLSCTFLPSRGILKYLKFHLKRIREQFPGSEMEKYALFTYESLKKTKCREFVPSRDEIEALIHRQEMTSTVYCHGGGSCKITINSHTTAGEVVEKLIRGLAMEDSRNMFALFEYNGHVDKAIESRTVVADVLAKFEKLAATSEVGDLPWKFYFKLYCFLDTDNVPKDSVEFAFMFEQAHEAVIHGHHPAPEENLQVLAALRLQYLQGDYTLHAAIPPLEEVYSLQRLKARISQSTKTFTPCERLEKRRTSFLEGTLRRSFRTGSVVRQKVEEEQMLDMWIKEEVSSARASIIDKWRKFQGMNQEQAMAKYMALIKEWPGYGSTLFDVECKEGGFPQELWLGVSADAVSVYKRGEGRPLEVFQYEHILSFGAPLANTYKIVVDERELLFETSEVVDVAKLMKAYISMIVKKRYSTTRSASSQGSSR

B1: His-TLN1^FERM (recombinant talin-FERM domain) (domain or fragment)
chain: RPLKIRMLDGTVKTIMVDDSKTVTDMLMTICARIGITNHDEYSLVRELMEEKKDEGTGTLRKDKTLLRDEKKMEKLKQKLHTDDELNWLDHGRTLREQGVEEHETLLLRRKFFYSDQNVDSRDPVQLNLLYVQARDDILNGSHPVSFDKACEFAGFQCQIQFGPHNEQKHKAGFLDLKDFLPKEYVKQKGERKIFQAHKNCGQMSEIEAKVRYVKLARSLKTYGVSFFLVKEKMKGKNKLVPRLLGITKECVMRVDEKTKEVIQEWSLTNIKRWAASPKSFTLDFGDYQDGYYSVQTTEGEQIAQLIAGYIDIILKKK
modifications: RED-tris-NTA dye on the His tag (Monolith His-Tag Labeling Kit)
B2: His-tagged MYO10^FERM (recombinant MYO10 MyTH4/FERM domain) (domain or fragment)
chain: T2 sequence (looked up)
modifications: RED-tris-NTA dye on the His tag (Monolith His-Tag Labeling Kit)
B3: conserved region of the α2-integrin tail, peptide (peptide)
peptide: WKLGFFKRKYEKM
modifications: also: biotinylated, position not given here
notes: Integrin alpha-2 (ITGA2), conserved membrane-proximal region of the cytoplasmic tail; also called ITGA2^WT; ITGA2; source: synthetic peptide (custom, LifeTein)
B4: wild-type β1-integrin tail peptide (peptide)
peptide: KLLMIIHDRREFAKFEKEKMNAKWDTGENPIYKSAVTTVVNPKYEGK
modifications: also: biotinylated, position not given here
notes: Integrin beta-1 (ITGB1) cytoplasmic tail; also called β-tail peptide; integrin β tail; source: synthetic peptide (custom, LifeTein)

Key:
[1] = target: T1, ITGA5 tail peptide; assay: MST
[2] = target: B2; assay: MST
[3] = target: T2, His-tagged MYO10^FERM (recombinant …); assay: MST; His-tagged recombinant FERM domains labelled with RED-tris-NTA at 20 nM, integrin tail peptides at increasing concentration; three independent experiments pooled; details: both partners purified
[4] = target: T3, His-TLN1^FERM (recombinant talin-FERM domain) (UniProt P26039 86-403, RED-tris-NTA dye on the His tag (Monolith His-Tag Labeling Kit)); assay: as above; details: both partners purified
T3 construct: Talin-1 (TLN1) FERM domain; source: E. coli BL-21(DE3), purified (Protino Ni-TED column)

Binder: B1
Kd [1]: 557 µM

Binder: B2
Kd [1]: 18.3 µM

Binder: B3
Kd [2]: 15.8 µM | binding result [3]: binds

Binder: B4
Kd [4]: 4.7 µM | Kd [3]: 25.1 µM
